The target of test [1] is T1, ThsB (Thoeris defense system TIR-domain protein) (UniProt J8G8J6 1-192).
T1 construct: Expressed from pBAD as a ThsA-ThsB operon in E. coli MG1655; also called Thoeris (ThsA/B)
T1 sequence: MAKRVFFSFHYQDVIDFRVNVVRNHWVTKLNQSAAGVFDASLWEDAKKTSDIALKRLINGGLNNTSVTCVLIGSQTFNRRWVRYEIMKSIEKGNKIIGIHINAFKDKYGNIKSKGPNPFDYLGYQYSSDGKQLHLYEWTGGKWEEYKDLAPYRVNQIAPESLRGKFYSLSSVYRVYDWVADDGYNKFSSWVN
Nature of the test: His-tag pulldown on Ni-NTA magnetic beads from E. coli lysate co-expressing TAD1-His, ThsA and ThsB; SDS-PAGE.

For test [2], the target named is T2, ThsA (Thoeris defense system protein) (UniProt J8G6Z1 1-476).
T2 construct: Expressed from pBAD as a ThsA-ThsB operon in E. coli MG1655; also called Thoeris (ThsA/B)
T2 sequence: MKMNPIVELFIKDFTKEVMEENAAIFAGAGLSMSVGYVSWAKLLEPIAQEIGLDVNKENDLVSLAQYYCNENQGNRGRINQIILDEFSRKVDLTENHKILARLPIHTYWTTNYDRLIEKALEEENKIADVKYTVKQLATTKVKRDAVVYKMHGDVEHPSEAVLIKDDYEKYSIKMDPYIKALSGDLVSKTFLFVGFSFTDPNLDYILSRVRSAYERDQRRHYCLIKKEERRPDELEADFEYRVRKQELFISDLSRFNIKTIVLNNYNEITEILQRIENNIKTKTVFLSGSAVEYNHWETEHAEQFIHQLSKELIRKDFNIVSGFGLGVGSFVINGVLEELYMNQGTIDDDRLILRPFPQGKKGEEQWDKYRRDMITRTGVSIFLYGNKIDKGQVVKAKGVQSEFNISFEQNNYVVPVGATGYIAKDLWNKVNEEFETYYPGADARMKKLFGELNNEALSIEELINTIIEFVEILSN
Described as above.

B1: TAD1 (Thoeris Anti Defense 1) from phage SBSphiJ7 with a C-terminal His-tag (other)
chain: MRELKHELLPTRHTQVFHEDKDKMEFNAPHHFVVVPAGSPLVDQQIHYGRGGNSKKVTVKDFAGKLATVNFQLGPVTEHGANGVMNEDLIAMVITRLQYFQNSEFNCRENAMAITKLEEALMWLNKRTAEREQRGVEGTHEK
notes: Co-expressed with ThsA and ThsB in E. coli MG1655 and pulled down on Ni-NTA magnetic beads; also called TAD1-His; His-TAD1; not shown: C-terminal His-tag
On to B1, for which the binding result in test [1] and in test [2] was “no binding” each time.
